Key:
[1] = target: SARS-CoV-2 spike protein bearing furin mutation and truncation in retention sequence, on pseudovirus (SARS-CoV-2, UniProt P0DTC2 14-1255); assay: cell-based or functional assay
[2] = target: full-length stabilised spike trimer protein of SARS-CoV-2 virus (in-house, soluble ECD with trimeris (SARS-CoV-2, UniProt P0DTC2 14-1208; P10104 458-484)
[3] = target: T1, S1 subunit of the SARS-CoV-2 spike protein (Sino Biological 40591-V08H), His tag (SARS-CoV-2, UniProt P0DTC2 16-685)
T1 construct: domain: S1 subunit

Row | Binder | pseudovirus neutralisation IC50 [1] | HTRF deltaF [2] | HTRF deltaF [3]
1 | YANG-1302 (antibody, V domains shown) VH: QVQLVESGGGAVQPGRSLRLSCRASGFTFSSFGMNWVRQVPGKGLVWVAGIWYDGRNKYYADSVKGRFTISRENSKNMLYLQMNSLRAEDTAVYYCARDQDSGFDGNWFGPWGQGTMVTVSS VL: SYELTQPPSMSVSPGQTASITCSGDNLGDKYVCWYQQRPGQSPVMVIFQDSTRPSGIPERFSGSNSGNTATLTISGTQAMDEADYYCQAWDSNTAVFGGGTKLTVL | 0.23 nM | – | –
2 | YANG-1301 (antibody, V domains shown) VH: QVQLVESGGGVVQPGRSLRLSCAASGFTFSSYGMHWVRQAPGKGLEWVAVIWYDGSNKFYADSVKGRFTISRDNSKNTLYLQMNSLKAEDTAVYYCARDTWIGESDTSWLDPWGQGTLVTVSS VL: not shown | 0.52 nM | – | –
3 | IMPI-027 (antibody, V domains shown) VH: QVQLQESGPGLVKPSQTLSLTCTVSGGSISSYGYYWNWIRQHPGKGLEWIGYIYYSGSTYYNPSLKSRVTISVDTSKNQLSLRLNSVSAADTAVYYCARDFGGNSNYFDYWGQGTLVTVSS VL: AIQLTQSPSSLSASVGDRVTITCRTSQGISSALAWYQQKPGKAPKLLIYDASSLESGVPSRFSGSGSGTDFTLTISSLQPEDFATYYCQQFNSYPLTFGGGTKVEIK | – | 800 deltaF | 755 deltaF
4 | IMPI-022 (antibody, V domains shown) VH: EVQLVESGGGLVQPGRSLRLSCAASGFTFDDYAMHWVRQAPGKGLEWVSGITWNSGSIGYADSVKGRFTISRDNAKNSLYLHMNSLRVEDTALYYCAKDLQGDYYYYGVDVWGQGTTVTVSS VL: AIQLTQSPSSLSASVGDRVTITCRASQGISSALAWYQQKPGKAPKLLLYDASSLVSGVPSRFSGSRSGTDFTLTISSLQPEDFATYYCQQFISYPLTFGGGTRVEIK | – | 483 deltaF | -5.8 deltaF
5 | IMPI-033 (antibody, V domains shown) VH: QVQLQESGPGLVKPSQTLSLTCTVSGGSISSYGYYWSWIRQHPGKGLEWIGYIYYSGSTYYNPSLKSRVTMSVDTSKNQLSLRLNSVSAADTAVYYCARDFGGNSNYFDYWGQGTLVTVSS VL: AIQLTQSPSSLSASVGDRVTITCRASQGISSALAWYQQKPGKAPNLLIYDASSLESGVPSRFSGSGSGTDFTLTISSLQPEDFATYYCQQFNSSPLTFGGGTKVEIK | – | 884 deltaF | 929 deltaF
6 | IMPI-037 (antibody, V domains shown) VH: not shown VL: DIQLTQSPSFLSASVGDRVTITCWASQGINSYLAWYQQKPGKAPKLLIYAASTLQSGVPSRFSGSGSGTEFTLTISSLQPEDFTTYYCQQFNDYPRTFGPGTKVEIK | – | 557 deltaF | 626 deltaF
7 | YANG-1401 (antibody, V domains shown) VH: QVHLQESGPGLVKPSGTLSLTCAVSGGSFSQINWWSWVRQSPGKGLEWIGEIYHSGSTNYNPSLKSRVTMSVDKSKNQFSLALNSVTAADTAVYYCARGYYGDNWFDSWGQGTLVTVSS VL: DIQMTQSPSSLSASIGDRVTITCRASQGISNWLVWYQQKPEKAPKSLIYAASSLQSGVPSRFSGSGSGTDFTLTISSLHPEDFATYYCQQYSDYPLTFGGGTKVEIK | 0.53 nM | – | –
8 | YANG-1112 (antibody, V domains shown) VH: QITLKESGPTLVKPTQTLTLTCTFSGFSLSTGGVAVGWIRQPPGKALEWLAIIYWDDDKRYSPSLKSRLTITKDTSKNQVVLTMTNMDPVDTATYYCAHWGKDSFDIWGQGTMVTVSS VL: SYELTQPPSVSVSPGQTARITCSGDALPRKYAYWYQQKSGQAPVLVIYEDNNRPSGIPERFSGSSSGTTATLTVSGAQVEDEADYYCYSTDTSGYVVFGGGTKLTVL | 0.52 nM | – | –
9 | IMPI-032 (antibody, V domains shown) VH: QVQLQESGPGLVKPSGTLSLTCAVSGGSISSNKWWSWVRQPPGKGLEWIGEIDHSGSTMYNPSLKSRVTISVDKSKNQFSLKLNSVTAADTAVYYCTGEGYNWNYWGQGTRVTVSS VL: DVVMTQSPLSLPVTLGQTASISCRSSQSLLYTDGNTYLSWFQQRPGQSPRRLIYKVSKWESGVPDRFSGSGSGTDFTLKISRVEAEDVGIYYCMQGTHWPLTFGGGTKVEIK | – | 218 deltaF | -8.9 deltaF

Source: US20250026813A1 (published 2025)
